The values below come from patent US20190248888A1, “METHODS OF LOWERING BLOOD GLUCOSE LEVELS” (Regeneron Pharmaceuticals, Inc., priority 2016, published 2019).

This experiment relates to C57BL/6 mice. The experiment is described as follows: GCGR antibody with or without rapamycin in C57BL/6 mice: blood chemistry, islet cell mass. The note with it: 21 days.

Protocol: C57BL/6 mice (males, 10 weeks of age, Taconic) were housed (5 mice per cage) in a controlled environment (12-h light/dark cycle, 22±1° C., 60-70% humidity) and fed ad libitum with standard chow (Purina Laboratory Rodent Diet 5001, LabDiet). Mice were assigned to study groups (n=10) based on baseline blood glucose levels. Mice were injected subcutaneously (sc) with GCGR antibody (3 mg/kg) or the control antibody (3 mg/kg) alone or in combination with rapamycin (10 mg/kg) or the vehicle. For the duration of the study, GCGR or control antibody was administered once weekly, whereas rapamycin or the vehicle was administered daily. Blood was collected from the tail for glucose measurements without fasting. Plasma samples were collected via submandibular bleeds at baseline and on day 21 after dosing for analysis of hormones and total amino acid levels. Seven days after the last antibody administration (day 21), mice were sacrificed, organs weighed and pancreata collected.
Pancreas α- and β-cell mass was measured as described elsewhere (Okamato et al., 2015, Endocrinology 156:2781-2794). α- and PP cell mass were determined using anti-somatostatin antibody (Sigma-Aldrich; #SAB4502861) and anti-pancreatic polypeptide antibody (Sigma-Aldrich; #SAB2500747). For quantifying Slc38a5 positive α-cells, pancreas sections were stained with human anti-glucagon and rabbit anti-Slc38a5 (Abcam; #ab72717) primary antibodies, and Alexa Fluor 488 labeled donkey anti-rabbit (Jackson ImmunoResearch; #711-545-152) and Alexa Fluor 594 donkey anti-human (Jackson ImmunoResearch; #709-585-149) secondary antibodies. For quantifying proliferating cells, Alexa Fluor 647 labeled anti-Ki67 (Abcam; #ab194724) was used in combination with anti-glucagon and anti-Slc38a5 antibodies. Slides were scanned using a Zeiss Axio Scan.Z1 slide scanner (Zeiss) and the images were analyzed using the Halo (Indica Labs).
Blood glucose was determined using ACCU-CHEK® Compact Plus (Roche Diagnostics). Plasma glucagon and insulin levels were determined using glucagon and mouse insulin ELISA (Mercodia). Plasma total amino acid levels were measured using L-Amino Acid Quantification Kit (Sigma-Aldrich).

B1: α-GCGR: potent monoclonal GCGR blocking antibody, HCVR/LCVR SEQ ID NOs: 86/88 (antibody, V domains shown)
VH: EVQLVESGGGLVQPGGSLRLSCAASGFTFSNYLMNWVRQAPGKGLEWLANIQEDGIEKYYVDSVKGRFTISRDNAKNSLYLQMNSLRAEDTAVYYCAREPSHYDILTGYDYYYGMDVWGQGTTVTVS
VL: DIQMTQSPSSLSASVGDRVTITCRASQGIRNDLGWYQQKPGKAPKRLIYAASSLQSGVPSRFSGSGSGTEFILTVSSLQPEDFATYYCLQYNSNPFTFGPGTKVDIK
As to B1, the blood glucose levels result (C57BL/6 mice, 3 mg/kg weekly) is “reduce”. Moreover, for the setting “GCGR antibody 3 mg/kg”, the “plasma amino acid levels” value is “significantly increased” and the α-cell size result is “slightly increased”.
